According to IntAct's records for PubMed 16873060:

B1: Protein PML (Homo sapiens), P29590 (parent)
chain: MEPAPARSPRPQQDPARPQEPTMPPPETPSEGRQPSPSPSPTERAPASEEEFQFLRCQQCQAEAKCPKLLPCLHTLCSGCLEASGMQCPICQAPWPLGADTPALDNVFFESLQRRLSVYRQIVDAQAVCTRCKESADFWCFECEQLLCAKCFEAHQWFLKHEARPLAELRNQSVREFLDGTRKTNNIFCSNPNHRTPTLTSIYCRGCSKPLCCSCALLDSSHSELKCDISAEIQQRQEELDAMTQALQEQDSAFGAVHAQMHAAVGQLGRARAETEELIRERVRQVVAHVRAQERELLEAVDARYQRDYEEMASRLGRLDAVLQRIRTGSALVQRMKCYASDQEVLDMHGFLRQALCRLRQEEPQSLQAAVRTDGFDEFKVRLQDLSSCITQGKDAAVSKKASPEAASTPRDPIDVDLPEEAERVKAQVQALGLAEAQPMAVVQSVPGAHPVPVYAFSIKGPSYGEDVSNTTTAQKRKCSQTQCPRKVIKMESEEGKEARLARSSPEQPRPSTSKAVSPPHLDGPPSPRSPVIGSEVFLPNSNHVASGAGEAEERVVVISSSEDSDAENSSSRELDDSSSESSDLQLEGPSTLRVLDENLADPQAEDRPLVFFDLKIDNETQKISQLAAVNRESKFRVVIQPEAFFSIYSKAVSLEVGLQHFLSFLSSMRRPILACYKLWGPGLPNFFRALEDINRLWEFQEAISGFLAALPLIRERVPGASSFKLKNLAQTYLARNMSERSAMAAVLAMRDLCRLLEVSPGPQLAQHVYPFSSLQCFASLQPLVQAAVLPRAEARLLALHNVSFMELLSAHRRDRQGGLKKYSRYLSLQTTTLPPAQPAFNLQALGTYFEGLLEGPALARAEGVSTPLAGRGLAERASQQS

Variants of: B1
Settings: with csk21_human CSNK2A1, P68400
Chain of csk21_human CSNK2A1, P68400 (P68400 whole entry, looked up): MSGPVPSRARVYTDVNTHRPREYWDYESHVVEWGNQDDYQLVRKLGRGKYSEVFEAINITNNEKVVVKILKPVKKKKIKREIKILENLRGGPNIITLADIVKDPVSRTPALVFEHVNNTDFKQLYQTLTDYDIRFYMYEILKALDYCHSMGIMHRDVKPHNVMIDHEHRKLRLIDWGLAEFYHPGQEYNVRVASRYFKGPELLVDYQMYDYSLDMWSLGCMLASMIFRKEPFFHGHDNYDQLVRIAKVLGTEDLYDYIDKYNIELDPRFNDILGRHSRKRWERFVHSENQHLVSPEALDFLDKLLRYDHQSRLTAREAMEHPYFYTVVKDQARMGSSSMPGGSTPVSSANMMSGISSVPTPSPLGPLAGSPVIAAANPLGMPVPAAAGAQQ

effect of a mutation on the interaction	Variant
decreasing interaction	S518A
